Results published in the supplement of paper PMC12636428.

What follows are sequences tested on Saccharomyces cerevisiae (assay: transcriptional activation domain activity (GFP:mCherry ratio, weighted mean of sorted bins, harmonized to initial dataset scale) (arbitrary fluorescence ratio units); higher = stronger transcriptional activation). Details: beta-estradiol 1 µM; induction time 4 h.
How it was run: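 Each value is an activation activity: the read-weighted mean of bin median fluorescence, averaged across barcodes, then mapped linearly to the initial dataset scale. The tiles, fused to an estradiol-inducible synthetic transcription factor, sat at the yeast URA3 locus in GFP-reporter diploids. Cells spent 4 hours at 30 °C in SC with 1 uM beta-estradiol before sorting into 8 GFP:mCherry bins, and tiles below 50 reads were removed.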

**Q.** How did the “transcriptional activation domain activity” value turn out when “MVFSFLLDILAGILYYYLVLGSHILASCFDYRWFYFFFFFFVLFFSLLFSVFL” was run?
**A.** 61900

**Q.** How did the “transcriptional activation domain activity” value turn out when “MVFSLASLSLLCLCLISFFFYLFFFFFFYQIPSPCFALWLANFYLSCRAWLDK” was run?
**A.** 46600

**Q.** With “MVGLVGFWVLFLFFLCPFLFSCPLPLPPLRPSLYIFQISYGSFFFLLFFSIFF” as the sequence, how does the “transcriptional activation domain activity” value read?
**A.** 62300

**Q.** Which “transcriptional activation domain activity” value does the source give for “MVGLVGFWVLFLFFLCPFLFSCPLPLPPLRPSLYIFQISYGSFFSCFSFLFFS” here?
**A.** 63800

**Q.** “MVGLVGFWVLFLFFLCPFLFSCPSPSPPLRPSLYIFQISYGSFFSCFSFLFFS” was tested. Which “transcriptional activation domain activity” value did it give?
**A.** 68700

**Q.** How did the “transcriptional activation domain activity” value turn out when “MVGRGCAVQVMIYPLFFVPGFLGFGFLVCYHFPFFMSLLWVLAWLRFWLVISS” was run?
**A.** 64400

**Q.** With “MVGVNGDHELLLCAIMFPPVLLIINSLLVSILFNDCFLVLSDILLCWMLSVVV” as the sequence, how does the “transcriptional activation domain activity” value read?
**A.** 50400

**Q.** How did the “transcriptional activation domain activity” value turn out when “MVHFLVTLPYFILQCLTWLLRFHFFLPCLTFLLCFHLFFGTSLLLSFSMFSWA” was run?
**A.** 50300

**Q.** “MVHIRTVVSFIFLVAGVLWTLFYLFIYFCLWDRRGHYVFLFCFCGCSRFMHFV” was tested. Which “transcriptional activation domain activity” value did it give?
**A.** 56500

**Q.** “MVHIVVVLCIVFCLLLCFKRRAQQLSSYCHASLRYFNLPPNFHQYYEQRFILV” was tested. Which “transcriptional activation domain activity” value did it give?
**A.** 78400

**Q.** With “MVICFHSLFLQLTTCVLDLYLHYGFLVLFLFLFFIFFPASYFSAYFFFFFIFC” as the sequence, how does the “transcriptional activation domain activity” value read?
**A.** 35900

**Q.** Which “transcriptional activation domain activity” value does the source give for “MVIFRLGSAPFFFLLFLFVLFFRFFFLVCCCLYGWVSVFLLLFFLRFFVSKWG” here?
**A.** 50700

**Q.** Which “transcriptional activation domain activity” value does the source give for “MVILLLFFVFRVNFVIVLAVSIPRQASFHVIHRFTYLLRRLQDMLNTTHRYAA” here?
**A.** 40500

**Q.** With “MVILMMGGEYGHFLGFSFYYFLHVWDGEEYYYCCGFYLSQSLLSILLCILLYL” as the sequence, how does the “transcriptional activation domain activity” value read?
**A.** 55400

**Q.** Which “transcriptional activation domain activity” value does the source give for “MVIMYKFVFYTGFDRFVFFFWDFFFFFFFFCMLSMGYFSYFIFILSLLESVLV” here?
**A.** 26200

**Q.** Which “transcriptional activation domain activity” value does the source give for “MVINGLPWLVALSIPFTFLASLTHSSWHPLLLRSHSTWRLYWWLVLVLRMHMT” here?
**A.** 41500

**Q.** With “MVIQKYMFLYFLFCILIFLCIQDLDQDKYNDSLWCSRPFYCHNLFIIILAFIH” as the sequence, how does the “transcriptional activation domain activity” value read?
**A.** 51800

**Q.** Which “transcriptional activation domain activity” value does the source give for “MVIRYGKLNLKYHPVHCLNHFQILCLSWAFCALLDPVGLIVSILLWKLLPTIE” here?
**A.** 69300

**Q.** Which “transcriptional activation domain activity” value does the source give for “MVIWRDTLLITLHGLCGGILLRFPSAVNLFHCFIDINSPIGITILTLFVLHLC” here?
**A.** 70200

**Q.** For “MVKGRGRGGQVLFLFLFLLLFFLFLFLSLFLFILFFLALFFWTFFVLFCFVWG”, which “transcriptional activation domain activity” value is on record?
**A.** 66200

**Q.** “MVKLLLTRLPYFCVLVYCVFRYPIATFCLDIFLFFKQLCQNAHAIQWPQISWL” was tested. Which “transcriptional activation domain activity” value did it give?
**A.** 77200

**Q.** With “MVKSFALGGLILLFSFLLLLLLLSLLLLFISSLLSLSLIPFFLFDSLSIARFS” as the sequence, how does the “transcriptional activation domain activity” value read?
**A.** 64400

**Q.** For “MVLCNSKSLFFPLFLHYLYCVIFLLLWILFHIAFIFFTNFYYYLPSHTLCAFI”, which “transcriptional activation domain activity” value is on record?
**A.** 61700

**Q.** With “MVLCPSSYSFPLPPFFLFFFLSSPFFFAALFFFFPFLPPNSRVCPSLFPLSLL” as the sequence, how does the “transcriptional activation domain activity” value read?
**A.** 62600

**Q.** With “MVLFLFCLITFACSRTWVMAFLLIWVSSFFLFILFFFSFFSYYAFRVLPLCYS” as the sequence, how does the “transcriptional activation domain activity” value read?
**A.** 46300

**Q.** How did the “transcriptional activation domain activity” value turn out when “MVLHMRGHVQNKIKITLFTAFFFFVQIRSLGWILFLGFSFSALFFPIFFIFFI” was run?
**A.** 55000

**Q.** Which “transcriptional activation domain activity” value does the source give for “MVLIFFLYWLWFMWGLYLFFFSFFSRAKYWLLVLVVFFFGWGFYIVWSFSLHD” here?
**A.** 57500

**Q.** For “MVLINIPNFLFSLFFFLFSFFSLLPFFTYLTFLSSSSLLLSTFCCSLASSPCM”, which “transcriptional activation domain activity” value is on record?
**A.** 50000

**Q.** For “MVLISFKSISPITSPILPTYHHHHHSFHHSIHHLLLIYYKLILLFLFFLIFYL”, which “transcriptional activation domain activity” value is on record?
**A.** 46800

**Q.** “MVLLCAYERGLGLDIGVSGFVSFFSFLTLFFFFPIYLFFSLLYFLCVCLLCCA” was tested. Which “transcriptional activation domain activity” value did it give?
**A.** 49700

**Q.** “MVLLCAYERVGLGRSIGFGIFFFLPLFLLLLLTHFSFLFFFFAFTFILMMACL” was tested. Which “transcriptional activation domain activity” value did it give?
**A.** 57800

**Q.** Which “transcriptional activation domain activity” value does the source give for “MVLLDVGWLCISRFILLDSMLLFFTFLTVFCLTKFHNQQYQSFSVDWWVWLFL” here?
**A.** 67700

**Q.** “MVLLGSCTLLIGKTITPYILVHKTGILYPLLFFFFFSLSLSFFYFFIGTFPLG” was tested. Which “transcriptional activation domain activity” value did it give?
**A.** 52100

**Q.** How did the “transcriptional activation domain activity” value turn out when “MVLLLLLDYNVFCHFNFAVHLYLLPFINKFKRIVLGHLIFLWNYLVQVVVVSP” was run?
**A.** 67600

**Q.** For “MVLLSKIVWVICGVTLVSTDFDHAQRRLRGSLLTSLTLYLLIVMCSRWSLVES”, which “transcriptional activation domain activity” value is on record?
**A.** 72400

**Q.** Which “transcriptional activation domain activity” value does the source give for “MVLLSRLIFVAVILSLTGCRSQLESRCMVFGYRRVLVVVVRAISSCAALLRCA” here?
**A.** 71100

**Q.** Which “transcriptional activation domain activity” value does the source give for “MVLLSVLCVLICNYFCLLVFTVAMGMPSGPPVRPLFQVILAHRRYLFSFRTHW” here?
**A.** 82500

**Q.** “MVLLTFSLICNSCATVLELSEHLPVPWDVFCQHMCVRFLLPLLRVAAHALTSA” was tested. Which “transcriptional activation domain activity” value did it give?
**A.** 43000

**Q.** For “MVLLTTLSKKTTIVTVLCSTVINMGKFGFTRHNHRCMRTGALLCLLLFLAYHF”, which “transcriptional activation domain activity” value is on record?
**A.** 42800

**Q.** Which “transcriptional activation domain activity” value does the source give for “MVLPYVLFNNTRQLLKVWYESLKAIVLLYQKIKIIFRYIFMYTLASLLLLFYF” here?
**A.** 45300

**Q.** “MVLQNSMIVIFCHSFDIVWSVFLIGHYCILFYRYLIFCYVCVSFNWTFYLYIF” was tested. Which “transcriptional activation domain activity” value did it give?
**A.** 58700

**Q.** Which “transcriptional activation domain activity” value does the source give for “MVLRYRLSRSFPTLFIHVQLVLQSLRMGQVSLCMVVQIVWEYIYFWLLGNIAW” here?
**A.** 65600
